# According to patent US20130045191A1 (IMMATICS BIOTECHNOLOGIES, published 2013):
# B1: CDC2-001 (peptide)
# peptide: LYQILQGIVF
# Target: T1, HLA A*024 (human)
# T1 construct: also called HLA A*024 alleles; HLA-A*24
# Experiment: HLA immunoprecipitation from tumour tissue, LC-MS (Example 1)
binder,measurement,value
B1,binding result,binds
